Common to all, as to type: biochemical
The nature of experiment [1]: Transpeptidation of Bz-G-A-R-A-R-X-OH at pH 7.5 at 50% substrate consumption, Table 4. More on the design: key to fa: fraction: aminolysis product / sum of all products formed. The note with it: for fa / t: 50% substrate consumption; for t: 375 mM H-Leu-NH2, 2 mM substrate, [E] 0.1 mg/mL. The procedure:
Transamidation reactions were carried out generally as described in PCT Application WO 95/20039. In general, the method included dissolving the nucleophile (H-Leu-NH2, unless otherwise indicated) in 50 mM HEPES, 5 mM EDTA and adjusting the pH to 7.5, 5 μl of peptide substrate (8 mM Bz-G-A-R-A-R-A-OH, unless otherwise indicated, in methanol) was added to 190 μl nucleophile solution followed by 5 μl enzyme, resulting in a substrate concentration of 0.2 mM.
(§1) During the reaction, 20 μl aliquots were removed from the reaction mixture and added to 50 μl 1% trifluoroacetic acid to quench the reaction. The reactant composition was determined by HPLC using a Waters HPLC equipped with a C-18 Waters Novapac 4μ reverse phase column and various gradients of acetonitrile in 0.1% trifluoroacetic acid. The separation was monitored at 254 nm allowing the direct quantification of the products from the integrated peak areas. The composition of the reaction mixture was determined at least twvice during the reaction, the first when 20-50% (preferably 35%) of the substrate had been consumed in the reaction and the second time when 50-90% (preferably 80%) of the peptide substrate had been consumed.
(§2) The fraction of aminolysis (fa) was expressed as the ratio between the formed aminolysis product and the sum of all products formed. Unconsumed substrate was disregarded in the calculations.
Site specific mutagenesis was performed as described for Example 1 to generate the specific mutants described below. Transamidation reactions were performed as described for Examples 1.

Experiment [2] is described as follows: Transpeptidation of Bz-G-A-R-A-R-X-OH at pH 6.5 at 50% substrate consumption, Table 5. More on the design: key to fa: fa = aminolysis product / sum of all products formed. The note with it: for Pmax (peak product yield) / fa: 750 mM H-Leu-NH2; for fa / t: 50% substrate consumption; for t: 750 mM H-Leu-NH2, 2 mM substrate, [E] 0.1 mg/mL. How it is done:
Transamidation reactions were carried out generally as described in PCT Application WO 95/20039. In general, the method included dissolving the nucleophile (H-Leu-NH2, unless otherwise indicated) in 50 mM HEPES, […], 5 μl of peptide substrate (8 mM Bz-G-A-R-A-R-A-OH, unless otherwise indicated, in methanol) was added to 190 μl nucleophile solution followed by 5 μl enzyme, resulting in a substrate concentration of 0.2 mM.
as §1
The fraction of aminolysis (fa) was expressed as the ratio between the formed aminolysis product and the sum of all products formed. Unconsumed substrate was disregarded in the calculations. […]

A short description of experiment [3]: Transpeptidation of Bz-G-A-R-A-R-A-OH (arginine at P1) with H-Leu-NH2, Table 1. The note with it: [N] 375 mM H-Leu-NH2; 2mM substrate; pH 7.5; [E] 0.1 mg/mL. The procedure:
The mutant carboxypeptidase enzvmes used in these studies were produced by site-directed mutagenesis, essentially following the procedures described in published PCT Patent Application No. WO 95/20039. In general, oligonucleotides synthesized to encode the amino acid substitution were used to produce the mutant enzymes.
Transamidation reactions were carried out generally as described in PCT Application WO 95/20039. In general, the method included dissolving the nucleophile (H-Leu-NH2, unless otherwise indicated) in 50 mM HEPES, 5 mM EDTA and adjusting the pH to 7.5, 5 μl of peptide substrate (8 mM Bz-G-A-R-A-R-A-OH, unless otherwise indicated, in methanol) was added to 190 μl nucleophile solution followed by 5 μl enzyme, […]
as §1
The reaction products were collected and identified by amino acid analysis after acid hydrolysis using a Pharmacia Alpha Plus analyzer. Further identification was obtained by co-chromatography of authentic standard compounds.
as §2

[4] abbreviates: leaving group A, 375 mM H-Leu-NH2.
Where [5] appears, read: leaving group I, 375 mM H-Leu-NH2.
[6] abbreviates: leaving group L, 375 mM H-Leu-NH2.
The mark [7] stands for this setting: leaving group M, 375 mM H-Leu-NH2.
Setting [8] is: leaving group V, 375 mM H-Leu-NH2.

Where only a bound is given, the exact number is not on record here.

B1: N51Q + L178S + M398L: carboxypeptidase Y mutant N51Q + L178S + M398L (protein, UniProt P00729 112-532, looked up, variant N51Q L178S M398L)
Carboxypeptidase Y: KIKDPKILGIDPNVTQYTGYLDVEDEDKHFFFWTFESRNDPAKDPVILWLQGGPGCSSLTGLFFELGPSSIGPDLKPIGNPYSWNSNATVIFLDQPVNVGFSYSGSSGVSNTVAAGKDVYNFLELFFDQFPEYVNKGQDFHIAGESYAGHYIPVFASEILSHKDRNFNLTSVLIGNGSTDPLTQYNYYEPMACGEGGEPSVLPSEECSAMEDSLERCLGLIESCYDSQSVWSCVPATIYCNNAQLAPYQRTGRNVYDIRKDCEGGNLCYPTLQDIDDYLNQDYVKEAVGAEVDHYESCNFDINRNFLFAGDWMKPYHTAVTDLLNQDLPILVYAGDKDFICNWLGNKAWTDVLPWKYDEEFASQKVRNWTASITDEVAGEVKSYKHFTYLRVFNGGHLVPFDVPENALSMVNEWIHGGFSL
Consider B1, for which, in experiment [1], the “fraction of aminolysis for leucine as a leaving group, in words” value is on record as “improved”. Also, the “Pmax (peak product yield)” value in experiment [1] (setting [4]) is >0.67; in experiment [1] (setting [6]), >0.73; in experiment [1] (leaving group L, 375 mM H-Leu-NH2, listed as N51Q+L178S+M398L), 0.73; in experiment [2] (leaving group A), 0.70; in experiment [2] (leaving group L), 0.80. Further, the fa in experiment [1] (setting [4]) worked out at 0.87; in experiment [1] (setting [5]), 0.82; in experiment [1] (setting [6]), 0.76; in experiment [1] (setting [7]), 0.75; in experiment [1] (setting [8]) it was 0.82; in experiment [2] (leaving group A), 0.91. The fa in experiment [2] (leaving group L) was determined as 0.84. Besides, the “t” value in experiment [1] (leaving group A) is recorded as 24 min; in experiment [1] (leaving group I), 129 min; in experiment [1] (leaving group L) it was 52 min; in experiment [1] (leaving group M) it was 84 min; in experiment [1] (leaving group V), 168 min; in experiment [2] (leaving group A) it was 194 min. Besides, in experiment [2] (leaving group L), the “t” value came to 36 min.

B2: L178S + W312N: carboxypeptidase Y combination mutant L178S + W312N (protein, UniProt P00729 112-532, looked up, variant L178S W312N)
Carboxypeptidase Y: KIKDPKILGIDPNVTQYTGYLDVEDEDKHFFFWTFESRNDPAKDPVILWLNGGPGCSSLTGLFFELGPSSIGPDLKPIGNPYSWNSNATVIFLDQPVNVGFSYSGSSGVSNTVAAGKDVYNFLELFFDQFPEYVNKGQDFHIAGESYAGHYIPVFASEILSHKDRNFNLTSVLIGNGSTDPLTQYNYYEPMACGEGGEPSVLPSEECSAMEDSLERCLGLIESCYDSQSVWSCVPATIYCNNAQLAPYQRTGRNVYDIRKDCEGGNLCYPTLQDIDDYLNQDYVKEAVGAEVDHYESCNFDINRNFLFAGDNMKPYHTAVTDLLNQDLPILVYAGDKDFICNWLGNKAWTDVLPWKYDEEFASQKVRNWTASITDEVAGEVKSYKHFTYLRVFNGGHMVPFDVPENALSMVNEWIHGGFSL
B2: the “fa (fraction of aminolysis)” value in experiment [3] was 0.63.

B3: L178D: carboxypeptidase Y S1 mutant, substitution L178D (protein, UniProt P00729 112-532, looked up, variant L178D)
Carboxypeptidase Y: KIKDPKILGIDPNVTQYTGYLDVEDEDKHFFFWTFESRNDPAKDPVILWLNGGPGCSSLTGLFFELGPSSIGPDLKPIGNPYSWNSNATVIFLDQPVNVGFSYSGSSGVSNTVAAGKDVYNFLELFFDQFPEYVNKGQDFHIAGESYAGHYIPVFASEILSHKDRNFNLTSVLIGNGDTDPLTQYNYYEPMACGEGGEPSVLPSEECSAMEDSLERCLGLIESCYDSQSVWSCVPATIYCNNAQLAPYQRTGRNVYDIRKDCEGGNLCYPTLQDIDDYLNQDYVKEAVGAEVDHYESCNFDINRNFLFAGDWMKPYHTAVTDLLNQDLPILVYAGDKDFICNWLGNKAWTDVLPWKYDEEFASQKVRNWTASITDEVAGEVKSYKHFTYLRVFNGGHMVPFDVPENALSMVNEWIHGGFSL
B3: in experiment [3], the “fa (fraction of aminolysis)” value turned out to be 0.81.

B4: W312N: carboxypeptidase Y S1 mutant, substitution W312N (protein, UniProt P00729 112-532, looked up, variant W312N)
Carboxypeptidase Y: KIKDPKILGIDPNVTQYTGYLDVEDEDKHFFFWTFESRNDPAKDPVILWLNGGPGCSSLTGLFFELGPSSIGPDLKPIGNPYSWNSNATVIFLDQPVNVGFSYSGSSGVSNTVAAGKDVYNFLELFFDQFPEYVNKGQDFHIAGESYAGHYIPVFASEILSHKDRNFNLTSVLIGNGLTDPLTQYNYYEPMACGEGGEPSVLPSEECSAMEDSLERCLGLIESCYDSQSVWSCVPATIYCNNAQLAPYQRTGRNVYDIRKDCEGGNLCYPTLQDIDDYLNQDYVKEAVGAEVDHYESCNFDINRNFLFAGDNMKPYHTAVTDLLNQDLPILVYAGDKDFICNWLGNKAWTDVLPWKYDEEFASQKVRNWTASITDEVAGEVKSYKHFTYLRVFNGGHMVPFDVPENALSMVNEWIHGGFSL
For the molecule B4, in experiment [3], the “fa (fraction of aminolysis)” value amounted to 0.23.

B5: N51Q + L178S: carboxypeptidase Y mutant N51Q + L178S (S1' and S1 subsites) (protein, UniProt P00729 112-532, looked up, variant N51Q L178S)
Carboxypeptidase Y: KIKDPKILGIDPNVTQYTGYLDVEDEDKHFFFWTFESRNDPAKDPVILWLQGGPGCSSLTGLFFELGPSSIGPDLKPIGNPYSWNSNATVIFLDQPVNVGFSYSGSSGVSNTVAAGKDVYNFLELFFDQFPEYVNKGQDFHIAGESYAGHYIPVFASEILSHKDRNFNLTSVLIGNGSTDPLTQYNYYEPMACGEGGEPSVLPSEECSAMEDSLERCLGLIESCYDSQSVWSCVPATIYCNNAQLAPYQRTGRNVYDIRKDCEGGNLCYPTLQDIDDYLNQDYVKEAVGAEVDHYESCNFDINRNFLFAGDWMKPYHTAVTDLLNQDLPILVYAGDKDFICNWLGNKAWTDVLPWKYDEEFASQKVRNWTASITDEVAGEVKSYKHFTYLRVFNGGHMVPFDVPENALSMVNEWIHGGFSL
As for B5, the “Pmax (peak product yield)” value was 0.60 in experiment [1] (setting [4]), 0.18 in experiment [1] (setting [6]), 0.78 in experiment [2] (leaving group A) and 0.26 in experiment [2] (leaving group L). Also, the fa in experiment [1] (setting [4]) amounted to 0.72; in experiment [1] (setting [5]) it was 0.62; in experiment [1] (setting [6]) it was 0.20; in experiment [1] (setting [7]) it was 0.51; in experiment [1] (setting [8]) it was 0.62; in experiment [2] (leaving group A) it was 0.87. In addition, the fa in experiment [2] (leaving group L) is on record as 0.28. Besides, the “t” value in experiment [1] (leaving group A) was 34 min; in experiment [1] (leaving group I), 211 min; in experiment [1] (leaving group L), 23 min; in experiment [1] (leaving group M), 211 min; in experiment [1] (leaving group V) it was 194 min; in experiment [2] (leaving group A), 31 min. Further, the “t” value in experiment [2] (leaving group L) was 19 min.

B6: W312L: carboxypeptidase Y S1 mutant, substitution W312L (protein, UniProt P00729 112-532, looked up, variant W312L)
Carboxypeptidase Y: KIKDPKILGIDPNVTQYTGYLDVEDEDKHFFFWTFESRNDPAKDPVILWLNGGPGCSSLTGLFFELGPSSIGPDLKPIGNPYSWNSNATVIFLDQPVNVGFSYSGSSGVSNTVAAGKDVYNFLELFFDQFPEYVNKGQDFHIAGESYAGHYIPVFASEILSHKDRNFNLTSVLIGNGLTDPLTQYNYYEPMACGEGGEPSVLPSEECSAMEDSLERCLGLIESCYDSQSVWSCVPATIYCNNAQLAPYQRTGRNVYDIRKDCEGGNLCYPTLQDIDDYLNQDYVKEAVGAEVDHYESCNFDINRNFLFAGDLMKPYHTAVTDLLNQDLPILVYAGDKDFICNWLGNKAWTDVLPWKYDEEFASQKVRNWTASITDEVAGEVKSYKHFTYLRVFNGGHMVPFDVPENALSMVNEWIHGGFSL
Take B6: the “fa (fraction of aminolysis)” value in experiment [3] is 0.07.
